Experimental data taken from the supplement of paper PMC10126150.
± gives the standard deviation of the averaged measurements.

System: ATP
Assay: switch fluorescence ratio, 500 uM ATP over buffer (Cy3 cluster intensity, sum of 5 cycles each) (fold (ratio)); higher = stronger signal-on switching upon ATP binding; sequences stand for … in TCGTCGGCAGCGTCAGATGTGTATAAGAGACAGTTTTTTTTTTTTTTTTTTTTTTTTT…TC
Conditions: aptamer strand: ATP DNA aptamer (quencher-CACCTGGGGGAGTATTGCGGAGGAAGG + anchor), 100 nM annealed; ATP concentration: 500 uM
In short: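 Values give the fluorescence ratio for each switch-domain sequence, averaged from per-cluster ratios of summed target-cycle to summed buffer-cycle Cy3 intensity. The Cy3-labelled switching-strand clusters sat on a modified Illumina MiSeq flow-cell, were annealed to 100 nM quencher-labelled ATP aptamer, and were imaged in selection buffer, then after 15 min with 500 uM ATP at 22 °C. Five cycles ran with NaOH stripping and re-annealing between them, and clusters outside 100-1000 RFU were excluded.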
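Note: ATP exposure 15 min at 22 °C before imaging.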

| Sequence | switch fluorescence ratio |
| --- | --- |
| CTGGCTAGAG | 0.973 ± 0.018 |
| CTGGCTATTG | 1.022 ± 0.0028 |
| CTGGGACGTG | 0.967 ± 0.028 |
| CTGGGAGGGT | 0.9977 ± 0.0012 |
| CTGGGCCCGG | 1.16 ± 0.27 |
| CTGGGCCGTC | 1.01 ± 0.021 |
| CTGGGCGGTG | 0.9982 ± 0.0052 |
| CTGGGGAGCG | 0.954 ± 0.034 |
| CTGGGGATCG | 1.02 ± 0.043 |
| CTGGGGCGCT | 1.028 ± 0.0032 |
| CTGGGGCGGA | 0.983 ± 0.052 |
| CTGGGGCGGG | 0.996 ± 0.057 |
| CTGGGGCGTT | 0.983 ± 0.0034 |
| CTGGGGGAAC | 1.004 ± 0.0049 |
| CTGGGGGCCG | 0.979 ± 0.054 |
| CTGGGGGGTC | 1.24 ± 0.41 |
| CTGGGGTTGT | 1.02 ± 0.012 |
| CTGGGTAGAC | 1.08 ± 0.011 |
| CTGGGTGTTC | 1.05 ± 0.035 |
| CTGGGTTTGG | 1 ± 0.025 |
| CTGGTAAAGA | 0.984 ± 0.015 |
| CTGGTAATTT | 1.02 ± 0.079 |
| CTGGTATACG | 1.06 ± 0.055 |
| CTGGTATAGG | 0.977 ± 0.028 |
| CTGGTATATC | 1.063 ± 0.0067 |

| Sequence | switch fluorescence ratio |
| --- | --- |
| CTGGTATGCG | 0.969 ± 0.054 |
| CTGGTCATTT | 0.997 ± 0.069 |
| CTGGTCCGGT | 0.994 ± 0.018 |
| CTGGTGCGCG | 0.98 ± 0.032 |
| CTGGTGGAGC | 0.954 ± 0.021 |
| CTGGTGGGGG | 0.9702 ± 0.0027 |
| CTGGTGTATT | 1.017 ± 0.0046 |
| CTGGTTACGC | 1.003 ± 0.0057 |
| CTGGTTACGG | 1.01 ± 0.015 |
| CTGGTTCACC | 0.99 ± 0.013 |
| CTGGTTCAGA | 0.994 ± 0.013 |
| CTGGTTGATT | 0.997 ± 0.04 |
| CTGGTTGGGA | 0.992 ± 0.013 |
| CTGTAAAGAG | 0.99 ± 0.035 |
| CTGTAGGGGC | 1.09 ± 0.062 |
| CTGTATAACG | 0.998 ± 0.031 |
| CTGTATGATC | 1 ± 0.024 |
| CTGTATTTGG | 1 ± 0.012 |
| CTGTATTTGT | 1.03 ± 0.019 |
| CTGTCCGTTG | 1.01 ± 0.017 |
| CTGTCGAGGC | 0.977 ± 0.053 |
| CTGTCGGGTT | 1.03 ± 0.04 |
| CTGTCTGGCT | 1.02 ± 0.016 |
| CTGTGCAACT | 1.0489 ± 0.00058 |
| CTGTGGATGC | 1.089 ± 0.0038 |

| Sequence | switch fluorescence ratio |
| --- | --- |
| CTGTGGCAGG | 1.021 ± 0.0041 |
| CTGTGGGCCG | 1 ± 0.02 |
| CTGTGGGCGC | 1.01 ± 0.027 |
| CTGTGGGGAT | 0.961 ± 0.014 |
| CTGTGTAGCT | 1.02 ± 0.024 |
| CTGTGTGCAG | 1.01 ± 0.034 |
| CTGTTATTTT | 0.974 ± 0.03 |
| CTGTTCTGGG | 1.003 ± 0.0063 |
| CTGTTGGGAA | 1.04 ± 0.091 |
| CTGTTGTTTG | 0.9784 ± 0.0016 |
| CTGTTTAATG | 0.9871 ± 0.0038 |
| CTGTTTCGAC | 1.02 ± 0.051 |
| CTGTTTCGGG | 0.978 ± 0.029 |
| CTGTTTGAGA | 1.02 ± 0.018 |
| CTGTTTGCCT | 0.983 ± 0.021 |
| CTGTTTGGGT | 0.9759 ± 0.0026 |
| CTGTTTTGTG | 1.01 ± 0.049 |
| CTGTTTTTGA | 0.96 ± 0.061 |
| CTTAAAAGTA | 0.972 ± 0.018 |
| CTTAAAATGC | 1.66 ± 0.46 |
| CTTAATGGGG | 0.973 ± 0.024 |
| CTTACCTGAG | 1.31 ± 0.045 |
| CTTAGAAGAT | 0.983 ± 0.044 |
| CTTAGCCTCA | 0.981 ± 0.034 |
| CTTAGCCTTT | 0.983 ± 0.016 |

| Sequence | switch fluorescence ratio |
| --- | --- |
| CTTAGGGAGA | 1 ± 0.035 |
| CTTAGGGGGA | 1 ± 0.012 |
| CTTAGGTTTG | 1 ± 0.018 |
| CTTAGTGAAA | 0.988 ± 0.029 |
| CTTATAGCTT | 0.987 ± 0.033 |
| CTTATCATGT | 0.981 ± 0.034 |
| CTTATCGGCA | 1.0825 ± 0.00095 |
| CTTATCTCTG | 1.05 ± 0.019 |
| CTTATTATGG | 0.975 ± 0.021 |
| CTTCAAAGTA | 1.03 ± 0.026 |
| CTTCATTACT | 1.08 ± 0.017 |
| CTTCCACGGT | 1.21 ± 0.12 |
| CTTCCGCTTG | 1.58 ± 0.021 |
| CTTCGGACCG | 1.03 ± 0.096 |
| CTTCGGAGGT | 1.028 ± 0.0037 |
| CTTCGGTGTT | 0.9967 ± 0.0085 |
| CTTCGTGACA | 1.042 ± 0.0027 |
| CTTCGTGATG | 1.1044 ± 0.00079 |
| CTTCTGAGGT | 1.74 ± 0.95 |
| CTTCTGTGGC | 1.071 ± 0.0073 |
| CTTCTTGTGG | 0.9925 ± 0.009 |
| CTTCTTGTTT | 1.008 ± 0.0037 |
| CTTCTTTGTG | 0.996 ± 0.018 |
| CTTGAAGTTA | 1 ± 0.011 |
| CTTGAATGTC | 1.05 ± 0.054 |

| Sequence | switch fluorescence ratio |
| --- | --- |
| CTTGAATGTG | 1 ± 0.013 |
| CTTGACAGAG | 0.9835 ± 0.0074 |
| CTTGAGTGTT | 0.996 ± 0.011 |
| CTTGATAACG | 1.024 ± 0.0033 |
| CTTGATGTAA | 1 ± 0.064 |
| CTTGATTAGG | 0.9981 ± 0.0037 |
| CTTGATTTTT | 1 ± 0.016 |
| CTTGCATGGC | 1.077 ± 0.0092 |
| CTTGCGGGGC | 1.03 ± 0.051 |
| CTTGCGTGTC | 1.03 ± 0.038 |
| CTTGCTTGAG | 1.003 ± 0.0007 |
| CTTGGAGGGT | 1.04 ± 0.086 |
| CTTGGAGTGG | 0.978 ± 0.024 |
| CTTGGCAGGG | 0.99 ± 0.02 |
| CTTGGGATTT | 0.98 ± 0.013 |
| CTTGGGGATT | 0.99 ± 0.044 |
| CTTGGGGCAT | 1.025 ± 0.008 |
| CTTGGGGGCT | 1.002 ± 0.0097 |
| CTTGGTTACG | 0.9738 ± 0.0093 |
| CTTGGTTCGA | 0.978 ± 0.026 |
| CTTGGTTTCT | 1.032 ± 0.0093 |
| CTTGTATTAC | 1.16 ± 0.024 |
| CTTGTCATCG | 0.993 ± 0.037 |
| CTTGTGGCTA | 0.956 ± 0.046 |
| CTTGTGTTCT | 0.9964 ± 0.004 |

| Sequence | switch fluorescence ratio |
| --- | --- |
| CTTGTTCTTA | 0.996 ± 0.024 |
| CTTTAAGTTT | 0.9967 ± 0.0093 |
| CTTTATAATC | 0.986 ± 0.026 |
| CTTTATGGGG | 0.974 ± 0.029 |
| CTTTATTGGA | 0.971 ± 0.013 |
| CTTTCAAGGT | 1.006 ± 0.0032 |
| CTTTCCCTTT | 1.01 ± 0.03 |
| CTTTCGGGCT | 1.01 ± 0.026 |
| CTTTCTCAA | 1.32 ± 0.44 |
| CTTTGAAGGA | 0.992 ± 0.03 |
| CTTTGATTGG | 0.99 ± 0.04 |
| CTTTGATTTT | 1.01 ± 0.019 |
| CTTTGCATTA | 1.7035 ± 0.00023 |
| CTTTGCCTGG | 0.98 ± 0.026 |
| CTTTGGAGGT | 0.985 ± 0.016 |
| CTTTGGCTTT | 0.967 ± 0.014 |
| CTTTGGGGCT | 0.999 ± 0.038 |
| CTTTGGGTGG | 1.03 ± 0.058 |
| CTTTGTAGT | 1.013 ± 0.01 |
| CTTTGTATGG | 1 ± 0.017 |
| CTTTGTATGT | 0.982 ± 0.029 |
| CTTTGTCTGA | 1.022 ± 0.0085 |
| CTTTGTTACG | 1.048 ± 0.0015 |
| CTTTTACCAA | 0.992 ± 0.046 |
| CTTTTAGAGA | 1.02 ± 0.015 |

| Sequence | switch fluorescence ratio |
| --- | --- |
| CTTTTAGGGA | 0.989 ± 0.028 |
| CTTTTAGGTG | 1.11 ± 0.12 |
| CTTTTAGTGG | 0.9714 ± 0.0059 |
| CTTTTAGTTT | 0.9963 ± 0.0034 |
| CTTTTCTTAA | 0.996 ± 0.0011 |
| CTTTTGGATT | 0.998 ± 0.022 |
| CTTTTTAGGC | 1 ± 0.043 |
| CTTTTTCTTT | 1.01 ± 0.057 |
| CTTTTTGCAT | 1.02 ± 0.013 |
| CTTTTTGTGT | 0.987 ± 0.019 |
| CTTTTTTTTT | 1.02 ± 0.063 |
| GAAAAAAAGC | 1.01 ± 0.053 |
| GAAAAAAGCG | 1.01 ± 0.041 |
| GAAAAACCTT | 3.83 ± 1.6 |
| GAAAAAGGTG | 1.1 ± 0.028 |
| GAAAAAGGTT | 0.969 ± 0.011 |
| GAAAAAGTCA | 1.01 ± 0.023 |
| GAAAAGAGGC | 1.1 ± 0.039 |
| GAAAAGATTA | 0.997 ± 0.028 |
| GAAAAGGGT | 1.08 ± 0.065 |
| GAAAAGGTAA | 1.025 ± 0.0033 |
| GAAAATCAGC | 0.976 ± 0.071 |
| GAAAATGAAG | 1.01 ± 0.031 |
| GAAAATGTTT | 1.0053 ± 2.1e-05 |
| GAAAATTGGG | 0.983 ± 0.015 |

| Sequence | switch fluorescence ratio |
| --- | --- |
| GAAACCGGAT | 0.966 ± 0.041 |
| GAAACGATGT | 1.08 ± 0.05 |
| GAAACGCTTT | 1.03 ± 0.057 |
| GAAACGGCGG | 1.04 ± 0.055 |
| GAAACTAATT | 0.9966 ± 0.0042 |
| GAAACTTGAC | 1.61 ± 0.039 |
| GAAAGGAATG | 1.041 ± 0.007 |
| GAAAGGGTGG | 0.9746 ± 0.0081 |
| GAAAGGTTGG | 0.993 ± 0.025 |
| GAAAGTATAA | 0.998 ± 0.013 |
| GAAAGTTAAG | 1.015 ± 0.0049 |
| GAAAGTTTTG | 1.01 ± 0.059 |
| GAAATAAGGT | 0.99 ± 0.024 |
| GAAATAAGTG | 1.04 ± 0.026 |
| GAAATAATGT | 1.03 ± 0.055 |
| GAAATACGGT | 1.19 ± 0.17 |
| GAAATAGTTT | 1.02 ± 0.021 |
| GAAATCAGGT | 1.02 ± 0.019 |
| GAAATCGCTG | 0.97 ± 0.072 |
| GAAATGAATA | 1 ± 0.011 |
| GAAATGACTT | 1.03 ± 0.015 |
| GAAATGCTCT | 1.01 ± 0.033 |
| GAAATGGAAG | 1 ± 0.038 |
| GAAATTAGAT | 1.003 ± 0.0098 |
| GAAATTAGGA | 1.01 ± 0.028 |
